Measured values taken from patent publication US20210395356A1 (Chugai, published 2021).

T1: flag-tagged mouse LAP (mouse)
T1 construct: also called recombinant mouse latency associated protein (LAP); mouse latency associated peptide
T1 chain: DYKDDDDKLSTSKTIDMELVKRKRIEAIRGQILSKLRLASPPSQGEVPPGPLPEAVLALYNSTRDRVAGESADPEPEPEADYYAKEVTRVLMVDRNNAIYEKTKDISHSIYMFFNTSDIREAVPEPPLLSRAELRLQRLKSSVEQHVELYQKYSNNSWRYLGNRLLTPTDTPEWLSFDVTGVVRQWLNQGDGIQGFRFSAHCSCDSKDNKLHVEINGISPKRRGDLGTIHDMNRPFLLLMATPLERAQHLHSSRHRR


How the values were obtained:
[1] = molecular target: T2, flag-tagged human latent TGF-beta 1 (human, UniProt P01137 34-390); assay: SPR Biacore 8k, antibody captured by anti-human kappa, latent TGF-beta 1 (SLC) as analyte, 37 C, 1:1 model
T2 construct: Small latent complex: homodimer of LAP and mature TGF-beta 1 held non-covalently; also called human latent TGF-beta 1 (SLC); hSLC
Experimental: (§1) Mouse anti-human Ig kappa light chain antibody (BD Pharmingen) was immobilized onto all flow cells of a CMS sensor chip using amine coupling kit (GE Healthcare). […] All antibodies and analytes were prepared in ACES pH 7.4 containing 20 mM ACES, 150 mM NaCl, 0.05% Tween 20, 0.005% NaN₃. Assay temperature was set at 37 degrees C. Sensor surface was regenerated each cycle with 10 mM Glycine-HCl, pH2.1. Binding activity was determined by processing and fitting the data to 1:1 binding model using Biacore Insight Software, version 1.1.1.7442 (GE Healthcare).

[2] = molecular target: T3, flag-tagged mouse latent TGF-beta 1 (mouse, UniProt P04202 34-390); assay: as above
T3 construct: also called mouse latent TGF-beta 1 (SLC); mSLC
Experimental: as §1

[3] = molecular target: T4, flag-tagged cynomolgus monkey latent TGF-beta 1 (cynomolgus monkey, UniProt P01137 34-390 (human entry), limits assumed); assay: as above
T4 construct: also called monkey latent TGF-beta 1 (SLC); Cyno latent TGF-beta 1
Experimental: as §1

mouse mature TGF-beta 1 = molecular target: T5, mouse mature TGF-beta 1 (mouse, UniProt P04202 279-390); assay: ELISA, plate coated with mouse mature TGF-beta 1, anti-human IgG-HRP detection
T5 construct: mature
Experimental: (§2) 384-well plate was coated with mouse or human mature TGF-beta 1 for overnight at 4 degree C., and then washed four times with PBS-T. After washing, the plate was blocked with blocking buffer (1×TBS/Tween-20+0.5% BSA+1× Block ace) for at least 1 hour at room temperature, and then washed four times with PBS-T. After washing, an antibody solution was added to the plate and incubated for 2 hours at room temperature, and then washed four times with PBS-T. After washing, diluted secondary antibody (goat anti-human IgG-HRP, Abcam, Cat. ab98624) was added to the plate and incubated for 1 hour at room temperature, and then washed four times with PBS-T. After washing, TMB solution was added to the plate and incubated for 15 minutes at room temperature, then 1N sulfuric acid was added to stop the reaction. The absorbance (optical density; OD) was measured at 450 nm/570 nm.

human mature TGF-beta 1 = molecular target: T6, human mature TGF-beta 1 (human, UniProt P01137 279-390); assay: ELISA, plate coated with human mature TGF-beta 1, anti-human IgG-HRP detection
T6 construct: mature
T6 sequence (P01137 279-390 limits assumed): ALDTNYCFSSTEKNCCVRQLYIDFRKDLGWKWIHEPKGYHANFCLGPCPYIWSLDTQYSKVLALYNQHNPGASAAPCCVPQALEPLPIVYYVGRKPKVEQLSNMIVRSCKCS
Experimental: as §2

flag-tagged mouse LAP = molecular target: T1, flag-tagged mouse LAP; assay: ELISA, plate coated with mouse LAP, anti-human IgG-HRP detection

Kd [1] [nM]	koff [1] [s⁻¹]	kon [1] [M⁻¹ s⁻¹]	Kd [2] [nM]	koff [2] [s⁻¹]	kon [2] [M⁻¹ s⁻¹]	Kd [3] [nM]	koff [3] [s⁻¹]	kon [3] [M⁻¹ s⁻¹]	binding result (mouse mature TGF-beta 1)	binding result (human mature TGF-beta 1)	binding result (flag-tagged mouse LAP)	Binder
1.13	0.00043	381000	1.1	0.000319	292000	1	0.000326	325000	no binding (tested: 10 ug/mL)	no binding (tested: 10 ug/mL)	binds	hT0947AE08-SG191 (antibody, IgG1, V domains shown, Humanized, optimized IgG1; also called hT0947AE08-5G191) VH: QVQLVESGGGVVQPGRSLRLSCAASGFTFSSYAMNWIRQPPGKGLEWIGYIYTSGTRYRANWARGRFTISRDNSKNTLYLQMNSLRAEDTAVYYCARGTDIYDYYYWVMDLWGPGTLVTVSS VL: DIQMTQSPSSLSASVGDRVTITCQASQSISTYLAWYQQKPGQPPKLLIYAASTLESGVPSRFSGSGSGTDFTLTISSLQPEDFATYYCQSYSDGDSVGFGQGTKVEIKR
2.15	0.000727	339000	1.6	0.000388	243000	2.24	0.000659	294000	no binding (tested: 10 ug/mL)	no binding (tested: 10 ug/mL)	binds	hT0947AE09-SG191 (antibody, IgG1, V domains shown, Humanized, optimized IgG1; also called hT0947AE09-5G191; hT0947A09-SG191) VH: QVQLVESGGGVVQPGRSLRLSCAASGFTFSSYAMNWIRQPPGKGLEWIGYIYTSGTRYRANWARGRFTISRDNSKNTLYLQMNSLRAEDTAVYYCARGTDIYDYYYWVMDLWGPGTLVTVSS VL: DIQMTQSPSSLSASVGDRVTITCQASQSISTYLAWYQQKPGQPPKLLIYAASTLESGVPSRFSGSGSGTDFTLTISSLQPEDFATYYCQSYSDADSVGFGQGTKVEIKR
–	–	–	1.89	–	–	–	–	–	no binding (tested: 10 ug/mL)	–	binds	hT0947AE04-SG191 (antibody, IgG1, V domains shown, Humanized, optimized IgG1) VH: QVQLVESGGGVVQPGRSLRLSCAASGFTFSSYAMNWIRQPPGKGLEWIGYIYTSGTTYHANWARGRFTISRDNSKNTLYLQMNSLRAEDTAVYYCARGTFIWDYYYWVMDLWGPGTLVTVSS VL: DIQMTQSPSSLSASVGDRVTITCQASQSISTYLAWYQQKPGQPPKLLIYKASTLESGVPSRFSGSGSGTDFTLTISSLQPEDFATYYCQSYSDADSVGFGQGTKVEIKR
